Results as given in patent publication JP2016028048A (dated 2016).

Columns and labels:
[1] = target: T1, ヒト組織因子経路インヒビター (human TFPI) (human, UniProt P10646 29-304, limits assumed); assay: ELISA, Fab in bacterial lysate on human TFPI-coated plate
T1 construct: Coated on Maxisorp plates (ELISA) or amine-coupled to a CM5 chip (Biacore); also called ヒトTFPI; hTFPI
T1 sequence (looked up): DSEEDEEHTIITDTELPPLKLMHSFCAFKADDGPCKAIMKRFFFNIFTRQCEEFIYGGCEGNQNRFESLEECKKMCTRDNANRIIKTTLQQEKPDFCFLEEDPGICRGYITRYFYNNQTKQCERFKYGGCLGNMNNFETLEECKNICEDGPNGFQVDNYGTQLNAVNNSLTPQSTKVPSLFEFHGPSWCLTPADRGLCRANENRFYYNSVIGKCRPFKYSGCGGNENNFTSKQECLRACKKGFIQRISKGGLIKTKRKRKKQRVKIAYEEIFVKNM

[2] = target: T2, マウスTFPI (mouse TFPI) (mouse, UniProt O54819 29-289, limits assumed); assay: ELISA on mouse TFPI-coated plate
T2 construct: Coated on plates (ELISA) or amine-coupled to a CM5 chip (Biacore); also called mTFPI; m-TFPI
T2 sequence (looked up): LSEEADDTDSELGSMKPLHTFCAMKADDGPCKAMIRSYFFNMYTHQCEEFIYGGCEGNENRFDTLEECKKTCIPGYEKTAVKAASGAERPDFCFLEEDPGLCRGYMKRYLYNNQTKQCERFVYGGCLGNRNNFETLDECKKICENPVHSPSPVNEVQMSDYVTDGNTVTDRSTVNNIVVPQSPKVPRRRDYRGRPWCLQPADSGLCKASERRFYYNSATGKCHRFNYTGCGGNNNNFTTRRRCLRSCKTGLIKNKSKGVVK

[3] = target: T1, ヒト組織因子経路インヒビター (human TFPI); assay: ELISA on human TFPI-coated plate
[4] = target: T2, マウスTFPI (mouse TFPI); assay: ELISA on mouse TFPI-coated plate; IgG against the Fab
[5] = target: T1, ヒト組織因子経路インヒビター (human TFPI); assay: ELISA on human TFPI-coated plate; IgG against the Fab

B1: TP-2B3 (Fab, V domains shown)
VH: QVQLQQSGPGLVKPSQTLSLTCAISGDSVSSNSAAWGWIRQSPGRGLEWLGMIYYRSKWYNSYAVSVKSRITINPDTSKNQFSLQLNSVTPEDTAVYYCARTMSKYGGPGMDVWGQGTLVTVSS
VL: DIVLTQSPATLSLSPGERATLSCRASQNIGSNYLAWYQQKPGQAPRLLIYGASTRATGVPARFNGSGSGTDFTLTISSLEPEDFAVYYCQQLNSIPVTFGQGTKVEIKR
notes: Human Fab (HuCal Gold), made in E. coli TG1
binding result [1]: binds

B2: TP-2B1 (Fab, V domains shown)
VH: QVQLVESGGGLVQPGGSLRLSCAASGFTFSSYSMSWVRQASGKGLEWVSSIKGSGSNTYYADSVKGRFTISRDNSKNTLYLQMNSLRAEDTAVYYCARNGGLIDVWGQGTLVTVSS
VL: DIELTQPPSVSVAPGQTARISCSGDNLGNKYAHWYQQKPGQAPVLVIYYDNKRPSGIPERFSGSNSGNTATLTISGTQAEDEADYYCQSWTPGSNTMVFGGGTRLTVLG
notes: as for B1
binding result [1]: binds

B3: TP-2A8 (Fab, V domains shown)
VH: QVQLVESGGGLVQPGGSLRLSCAASGFTFRSYGMSWVRQAPGKGLEWVSSIRGSSSSTYYADSVKGRFTISRDNSKNTLYLQMNSLRAEDTAVYYCARKYRYWFDYWGQGTLVTVSS
VL: DIELTQPPSVSVAPGQTARISCSGDNLRNYYAHWYQQKPGQAPVVVIYYDNNRPSGIPERFSGSNSGNTATLTISGTQAEDEADYYCQSWDDGVPVFGGGTKLTVLG
notes: Human Fab (HuCal Gold), made in E. coli TG1; also called Fab-2A8; TP-2A8-Fab
binding result [1]: binds

B4: TP-4B7 (Fab, V domains shown)
VH: QVQLQQSGPGLVKPSQTLSLTCAISGDSVSSNSAAWSWIRQSPGRGLEWLGIIYKRSKWYNDYAVSVKSRITINPDTSKNQFSLQLNSVTPEDTAVYYCARWHSDKHWGFDYWGQGTLVTVSS
VL: DIVMTQSPLSLPVTPGEPASISCRSSQSLVFSDGNTYLNWYLQKPGQSPQLLIYKGSNRASGVPDRFSGSGSGTDFTLKISRVEAEDVGVYYCQQYDSYPLTFGQGTKVEIKR
notes: as for B1
binding result [1]: binds

B5: TP-2B8 (Fab, V domains shown)
VH: QVQLVQSGAEVKKPGASVKVSCKASGYTFTGNSMHWVRQAPGQGLEWMGTIFPYDGTTKYAQKFQGRVTMTRDTSISTAYMELSSLRSEDTAVYYCARGVHSYFDYWGQGTLVTVSS
VL: DIELTQPPSVSVAPGQTARISCSGDNLRGYYASWYQQKPGQAPVLVIYEDNNRPSGIPERFSGSNSGNTATLTISGTQAEDEADYYCQSWDSPYVHVFGGGTKLTVLG
notes: as for B1
binding result [1]: binds

B6: TP-2B4 (Fab, V domains shown)
VH: QVQLVESGGGLVQPGGSLRLSCAASGFTFSNYSMTWVRQAPGKGLEWVSGISYNGSNTYYADSVKGRFTISRDNSKNTLYLQMNSLRAEDTAVYYCARIYYMNLLAGWGQGTLVTVSS
VL: DIELTQPPSVSVAPGQTARISCSGDALGTYYAYWYQQKPGQAPVLVIYGDMNRPSGIPERFSGSNSGNTATLTISGTQAEDEADYYCQSYDAGVKPAVFGGGTKLTVLG
notes: as for B1
binding result [1]: binds

B7: TP-2A10 (Fab, V domains shown)
VH: QVQLVESGGGLVQPGGSLRLSCAASGFTFTSYSMNWVRQAPGKGLEWVSAISYTGSNTHYADSVKGRFTISRDNSKNTLYLQMNSLRAEDTAVYYCARAFLGYKESYFDIWGQGTLVTVSS
VL: DIELTQPPSVSVAPGQTARISCSGDKLGKKYVHWYQQKPGQAPVLVIYGDDKRPSGIPERFSGSNSGNTATLTISGTQAEDEADYYCQAWGSISRFVFGGGTKLTVLG
notes: as for B1
binding result [1]: binds

B8: TP-2G6 (Fab, V domains shown)
VH: QVQLQQSGPGLVKPSQTLSLTCAISGDSVSSSSAAWSWIRQSPGRGLEWLGIIYYRSKWYNDYAVSVKSRITINPDTSKNQFSLQLNSVTPEDTAVYYCARHSMVGFDVWGQGTLVTVSS
VL: DIVLTQSPATLSLSPGERATLSCRASQYVTSSYLAWYQQKPGQAPRLLIYGSSRATGVPARFSGSGSGTDFTLTISSLEPEDFATYYCQQYSSSPITFGQGTKVEIKR
notes: Human Fab (HuCal Gold), made in E. coli TG1; also called 2G6-Fab
EC50 [2]: 5.18 nM | EC50 [3]: 0.48 nM

B9: 2G6-IgG (antibody, V domains shown)
VH: QVQLQQSGPGLVKPSQTLSLTCAISGDSVSSSSAAWSWIRQSPGRGLEWLGIIYYRSKWYNDYAVSVKSRITINPDTSKNQFSLQLNSVTPEDTAVYYCARHSMVGFDVWGQGTLVTVSS
VL: DIVLTQSPATLSLSPGERATLSCRASQYVTSSYLAWYQQKPGQAPRLLIYGSSRATGVPARFSGSGSGTDFTLTISSLEPEDFATYYCQQYSSSPITFGQGTKVEIKR
notes: also called IgG-2G6; TP-2G6 after conversion to IgG
fold change of EC50 against 2G6-Fab [4]: 10 倍 | EC50 [2]: 0.51 nM | fold change of EC50 against 2G6-Fab [5]: 2 倍 | EC50 [3]: 0.22 nM
